# Source: publication PMC10397247
# Experiments:
# 4H3782-AA = target: T1, 4H3782-AA; test: two-hybrid library CCmax;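 further: natural log of median RNA to DNA barcode read ratio; higher means stronger binding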
# T1 chain: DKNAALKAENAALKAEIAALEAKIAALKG
# 4H380-AA = target: T2, 4H380-AA; test: two-hybrid library CCmax; conditions: mean of both orientations;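 further: natural log of median RNA to DNA barcode read ratio; higher means stronger binding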
# T2 chain: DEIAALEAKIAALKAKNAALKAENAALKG
# 4H3855-AA = target: T3, 4H3855-AA; test: two-hybrid library CCmax; conditions: mean of both orientations;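 further: natural log of median RNA to DNA barcode read ratio; higher means stronger binding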
# T3 chain: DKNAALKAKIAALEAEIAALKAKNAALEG
# 4H3939-AA = target: T4, 4H3939-AA; test: two-hybrid library CCmax; conditions: mean of both orientations;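 further: natural log of median RNA to DNA barcode read ratio; higher means stronger binding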
# T4 chain: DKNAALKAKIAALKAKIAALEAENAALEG
# 4H3969-AA = target: T5, 4H3969-AA; test: two-hybrid library CCmax; conditions: mean of both orientations
# T5 chain: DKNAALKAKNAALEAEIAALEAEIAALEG
# 4H4001-AA = target: T6, 4H4001-AA; test: two-hybrid library CCmax; conditions: mean of both orientations
# T6 chain: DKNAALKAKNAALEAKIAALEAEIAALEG
# 4H446-AA = target: T7, 4H446-AA; test: two-hybrid library CCmax; conditions: mean of both orientations
# T7 chain: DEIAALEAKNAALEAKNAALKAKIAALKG
# 4H464-AA = target: T8, 4H464-AA; test: two-hybrid library CCmax; conditions: mean of both orientations
# T8 chain: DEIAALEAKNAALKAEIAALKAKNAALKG
# 4H465-AA = target: T9, 4H465-AA; test: two-hybrid library CCmax; conditions: mean of both orientations
# T9 chain: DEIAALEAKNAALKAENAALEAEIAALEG
# 4H483-AA = target: T10, 4H483-AA; test: two-hybrid library CCmax; conditions: mean of both orientations
# T10 chain: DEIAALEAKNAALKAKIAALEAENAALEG
# 4H486-AA = target: T11, 4H486-AA; test: two-hybrid library CCmax; conditions: mean of both orientations
# T11 chain: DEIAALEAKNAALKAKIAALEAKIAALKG
# 4H535-AA = target: T12, 4H535-AA; test: two-hybrid library CCmax; conditions: mean of both orientations
# T12 chain: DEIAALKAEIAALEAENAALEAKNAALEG
# 4H568-AA = target: T13, 4H568-AA; test: two-hybrid library CCmax; conditions: mean of both orientations
# T13 chain: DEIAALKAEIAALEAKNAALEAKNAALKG
# 4H58-AA = target: T14, 4H58-AA; test: two-hybrid library CCmax; conditions: mean of both orientations
# T14 chain: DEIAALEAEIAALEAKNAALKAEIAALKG
# 4H63-AA = target: T15, 4H63-AA; test: two-hybrid library CCmax; conditions: mean of both orientations
# T15 chain: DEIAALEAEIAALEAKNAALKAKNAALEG
# 4H687-AA = target: T16, 4H687-AA; test: two-hybrid library CCmax; conditions: mean of both orientations
# T16 chain: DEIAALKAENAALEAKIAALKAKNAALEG
# 4H717-AA = target: T17, 4H717-AA; test: two-hybrid library CCmax; conditions: mean of both orientations
# T17 chain: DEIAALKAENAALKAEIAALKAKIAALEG
# 4H797-AA = target: T18, 4H797-AA; test: two-hybrid library CCmax; conditions: mean of both orientations
# T18 chain: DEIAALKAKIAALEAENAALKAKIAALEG
# 4H883-AA = target: T19, 4H883-AA; test: two-hybrid library CCmax; conditions: mean of both orientations
# T19 chain: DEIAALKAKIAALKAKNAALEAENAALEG
# 4H895-AA = target: T20, 4H895-AA; test: two-hybrid library CCmax; conditions: mean of both orientations
# T20 chain: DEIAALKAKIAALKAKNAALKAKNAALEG
# 4H918-AA = target: T21, 4H918-AA; test: two-hybrid library CCmax; conditions: mean of both orientations
# T21 chain: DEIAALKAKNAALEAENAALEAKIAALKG
# 4H953-AA = target: T22, 4H953-AA; test: two-hybrid library CCmax; conditions: mean of both orientations
# T22 chain: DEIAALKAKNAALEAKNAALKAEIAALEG
# 4H967-AA = target: T23, 4H967-AA; test: two-hybrid library CCmax; conditions: mean of both orientations
# T23 chain: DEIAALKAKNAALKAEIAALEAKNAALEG
# 4H_APH = target: T24, 4H_APH; test: two-hybrid library CCmax; conditions: mean of both orientations
# T24 chain: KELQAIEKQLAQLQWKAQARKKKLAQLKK
# 4H_BCR = target: T25, 4H_BCR; test: two-hybrid library CCmax; conditions: mean of both orientations
# T25 chain: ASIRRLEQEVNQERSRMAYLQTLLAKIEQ
# 4H_GCN4 = test: two-hybrid library CCmax; conditions: mean of both orientations
# Sequence of 4H_GCN4 (chain, as listed by the source): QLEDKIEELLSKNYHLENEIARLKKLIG
# GCN2_T = test: two-hybrid library CCmax
# P5SC1 = target: T26, P5SC1; test: two-hybrid library CC1
# T26 chain: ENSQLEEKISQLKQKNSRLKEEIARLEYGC
# P5SC2 = target: T27, P5SC2; test: two-hybrid library CC1; conditions: mean of both orientations
# T27 chain: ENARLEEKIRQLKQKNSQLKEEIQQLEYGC
# P5mS = target: T28, P5mS; test: two-hybrid library CC1; conditions: mean of both orientations
# T28 chain: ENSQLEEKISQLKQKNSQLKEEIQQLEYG
# P6SC1 = target: T29, P6SC1; test: two-hybrid library CC1; conditions: mean of both orientations
# T29 chain: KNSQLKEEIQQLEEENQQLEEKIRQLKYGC
# P6SC2 = target: T30, P6SC2; test: two-hybrid library CC1; conditions: mean of both orientations
# T30 chain: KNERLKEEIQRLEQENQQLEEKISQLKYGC
# P6 = target: T31, P6; test: two-hybrid library CC1; conditions: mean of both orientations
# T31 chain: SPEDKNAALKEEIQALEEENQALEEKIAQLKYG
# P6mS = target: T32, P6mS; test: two-hybrid library CC1; conditions: mean of both orientations
# T32 chain: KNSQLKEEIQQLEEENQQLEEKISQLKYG
# P7 = target: T33, P7; test: two-hybrid library CC1; conditions: mean of both orientations
# T33 chain: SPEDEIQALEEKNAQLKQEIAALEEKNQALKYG
# P7mS = target: T34, P7mS; test: two-hybrid library CC1; conditions: mean of both orientations
# T34 chain: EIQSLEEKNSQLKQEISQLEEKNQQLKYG
# P8 = target: T35, P8; test: two-hybrid library CC1; conditions: mean of both orientations
# T35 chain: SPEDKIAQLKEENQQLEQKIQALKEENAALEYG
# P8mS = target: T36, P8mS; test: two-hybrid library CC1; conditions: mean of both orientations
# T36 chain: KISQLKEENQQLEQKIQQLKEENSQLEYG
# P9 = target: T37, P9; test: two-hybrid library CC1; conditions: mean of both orientations
# T37 chain: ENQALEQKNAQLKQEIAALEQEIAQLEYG
# 4H496-bN = target: T38, 4H496-bN; test: two-hybrid library CCNG1
# T38 chain: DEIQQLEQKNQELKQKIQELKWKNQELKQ
binder,measurement,setting,value
DKNAALKAENAALKAEIAALEAKIAALKG [4H3782-AA],interaction score,4H3782-AA,0.893
same,interaction score,4H380-AA,-1.52
same,interaction score,4H3855-AA,-0.587
same,interaction score,4H3939-AA,-0.413
same,interaction score,4H3969-AA,-0.912
same,interaction score,4H4001-AA,-0.482
same,interaction score,4H446-AA,-1.07
same,interaction score,4H464-AA,-0.448
same,interaction score,4H465-AA,-1.7
same,interaction score,4H483-AA,-0.902
same,interaction score,4H486-AA,1.41
same,interaction score,4H535-AA,-1.44
same,interaction score,4H568-AA,-1.41
same,interaction score,4H58-AA,-1.38
same,interaction score,4H63-AA,-1.44
same,interaction score,4H687-AA,-0.545
same,interaction score,4H717-AA,1.02
same,interaction score,4H797-AA,-1.45
same,interaction score,4H883-AA,-1.27
same,interaction score,4H895-AA,-1.54
same,interaction score,4H918-AA,-0.968
same,interaction score,4H953-AA,-1.68
same,interaction score,4H967-AA,-1.19
same,interaction score,4H_APH,-2.26
same,interaction score,4H_BCR,-1.19
same,interaction score,4H_GCN4,-2.54
same,interaction score,GCN2_T,-1.87
ENSQLEEKISQLKQKNSRLKEEIARLEYGC [P5SC1],interaction score,P5SC1,-2.92
same,interaction score,P5SC2,-2.82
same,interaction score,P5mS,-2.78
same,interaction score,P6SC1,0.372
same,interaction score,P6SC2,0.373
same,interaction score,P6,0.357
same,interaction score,P6mS,0.307
same,interaction score,P7,-2.4
same,interaction score,P7mS,-2.67
same,interaction score,P8,-0.893
same,interaction score,P8mS,-2.29
same,interaction score,P9,-2.33
DEIQQLEQKNQELKQKIQELKWKNQELKQ [4H496-bN],interaction score,4H496-bN,-0.0824
